Experimental findings from patent US9655377, “Methods of controlling fructan synthesis in plants” (COMMONWEALTH SCIENTIFIC AND INDUSTRIAL RESEARCH ORGANISATION) are described below.

Data set [1] has as its target T1, TaMYB13-1 (correctly spliced form) (Triticum aestivum).
T1 chain: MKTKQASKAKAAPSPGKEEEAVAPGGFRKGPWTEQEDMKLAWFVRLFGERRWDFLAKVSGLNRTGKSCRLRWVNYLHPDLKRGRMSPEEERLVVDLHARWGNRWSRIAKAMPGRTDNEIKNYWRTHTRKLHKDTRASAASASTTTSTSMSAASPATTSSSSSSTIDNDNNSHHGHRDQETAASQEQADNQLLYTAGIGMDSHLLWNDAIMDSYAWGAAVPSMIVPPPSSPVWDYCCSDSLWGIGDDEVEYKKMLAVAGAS
In words: CELD reporter assay; positive control. As to conditions: tags: C-terminal 6xHis-tagged CELD cellulase reporter fusion; label: biotin. Here is the method:
(§1) The DNA-binding activity of TaMYB13-CELD was measured as described previously (Xue, 2002a) using streptavidin-coated 96-well plate and binding/washing buffer (25 mM HEPES/KOH, pH 7.0, 50 mM KCl, 0.2 mM EDTA and 0.5 mM DTT) containing 0.15 µg µl^-1 shared herring sperm DNA, 0.3 mg ml^-1 bovine, serum albumin, 10% glycerol and 0.025% Nonidet P-40. 40,000 fluorescent units h^-1 of the CELD activity of TaMYB13-CELD protein and 2 pmol of biotinylated probes were used per assay. The cellulase activity of TaMYB13-CELD proteins bound to immobilised biotinylated probes was assayed by incubation in 100 μl of the CELD substrate solution [1 mM methylumbelliferyl β-D-cellobioside (MUC) in 50 mM Na-citrate buffer, pH 6.0] at 40° C. for 3 h. A biotin-labelled double-stranded oligonucleotide without a TaMYB13 binding site was used as a control of background activity.

The target of data set [2] is T1, TaMYB13-1 (correctly spliced form). Put plainly: background control. The following applies: tags: C-terminal 6xHis-tagged CELD cellulase reporter fusion; label: biotin. As to the method:
as §1

Data set [3] has the same target. In words: CELD reporter plate assay, 25 mM HEPES pH 7.0, 50 mM KCl; self-competition at 2.5x reduced binding about 60%. As to conditions: tags: C-terminal 6xHis-tagged CELD cellulase reporter fusion; label: biotin. As to the method: (§2) The DNA-binding activity of TaMYB13-CELD was measured as described previously (Xue, 2002a) using streptavidin-coated 96-well plate and binding/washing buffer (25 mM HEPES/KOH, pH 7.0, 50 mM KCl, 0.2 mM EDTA and 0.5 mM DTT) containing 0.15 µg µl^-1 shared herring sperm DNA, 0.3 mg ml^-1 bovine, serum albumin, 10% glycerol and 0.025% Nonidet P-40. 40,000 fluorescent units h^-1 of the CELD activity of TaMYB13-CELD protein and 2 pmol of biotinylated probes were used per assay. […]
(§3) Binding site competition assays were as described by Xue (2002). […] Relative TaMYB13 binding activity was expressed as fluorescence units (FU) of methylumbelliferyl group generated from MUC hydrolysis by TaMYB13-CELD that bound to an immobilised biotin-labelled probe after 3-h incubation of cellulase assay.
(§4) To further analyse the relative binding affinity of the previously reported plant R2R3 MYB protein sites in relation to the preferred TaMYB13-binding site, a binding site competition analysis was performed. Relative TaMYB13 binding activity to three biotin-labelled probes (SynO2m14, MYB.Ph3-II and MRE2) was assessed in combination with or without one of the four unlabelled competitors in a 2.5-fold amount: SynO2m14, MYB.Ph3-II, MRE2 and AC-I. The addition of a 2.5-fold amount of unlabelled SynO2m14 to biotin-labelled SynO2m14 reduced the TaMYB13 binding activity by about 60%. […]

Data set [4] has the same target. In words: relative to SynO2m14. The following applies: tags: C-terminal 6xHis-tagged CELD cellulase reporter fusion; label: biotin.
For data set [5] the target is unchanged. In words: no or negligible activity; did not compete with SynO2m14. The following applies: tags: C-terminal 6xHis-tagged CELD cellulase reporter fusion; label: biotin. As to the method:
as §2, §3, §4

The target is the same in data set [6]. Put plainly: higher affinity than Ta1-SST S1; assayed oligonucleotide may be longer. The following applies: tags: C-terminal 6xHis-tagged CELD cellulase reporter fusion. Here is the method: as §1
For data set [7] the target is unchanged. In words: assayed oligonucleotide may be longer. As to conditions: tags: C-terminal 6xHis-tagged CELD cellulase reporter fusion.
Data set [8] shares this target. In words: higher affinity than S3; assayed oligonucleotide may be longer. As to conditions: tags: C-terminal 6xHis-tagged CELD cellulase reporter fusion. As to the method:
as §1

Data set [9] shares this target. In words: no or negligible activity, relative to SynO2m14. As to conditions: tags: C-terminal 6xHis-tagged CELD cellulase reporter fusion; label: biotin.
The target is the same in data set [10]. Put plainly: no or negligible activity. As to conditions: tags: C-terminal 6xHis-tagged CELD cellulase reporter fusion; label: biotin.

B1: SynO2 (dsDNA)
DNA 1: TCGACCGAATAAAGTTTGGTATGATGT
DNA 2: ACATCATACCAAACTTTATTCGGTCGA
B1: the binding result in data set [1] is “binds”.

B2: control without TaMYB13 site (dsDNA)
DNA 1: GAGAATTTGCCGTTTATCTAGAAATTACCT
DNA 2: AGGTAATTTCTAGATAAACGGCAAATTCTC
On to B2, for which the binding result in [2] is “no binding”.

B3: SynO2m14 (dsDNA)
DNA 1: TCGAGGGAATAAAGTTAGGTAAGATGT
DNA 2: ACATCTTACCTAACTTTATTCCCTCGA
As for B3, the binding result in data set [3] is on record as “binds”.

B4: AC-III (dsDNA)
DNA 1: TCGAGGGAATAAAGTTAGGTTATGATGT
DNA 2: ACATCATAACCTAACTTTATTCCCTCGA
As for B4, the binding result in [4] was “binds”.

B5: AC-I (rev-comp) (dsDNA)
DNA 1: TCGAGGGAATAAGGTAGGTGGATGATGT
DNA 2: ACATCATCCACCTACCTTATTCCCTCGA
For B5, the binding result in data set [5] is given as “no binding”.

B6: Ta1-SST S2 site (dsDNA)
DNA 1: ATGTTCGGTAA
DNA 2: TTACCGAACAT
With B6, the binding result in [6] was “binds”.

B7: Hv6-SFT S1 site (dsDNA)
DNA 1: TATGTTAGGTAC
DNA 2: GTACCTAACATA
For the molecule B7, in [7], the binding result is on record as “binds”.

B8: Ta6-SFT1 S1 site (dsDNA)
DNA 1: TGTTAGGTTCGGTT
DNA 2: AACCGAACCTAACA
Take B8: the binding result in data set [8] is “binds”.

B9: MYB.Ph3-I (dsDNA)
DNA 1: TCGAGGGAATAAAAACGGTTATGATGT
DNA 2: ACATCATAACCGTTTTTATTCCCTCGA
Take B9: the binding result in [9] is “no binding”.

B10: MRE (rev-comp) (dsDNA)
DNA 1: TCGAGGGAATAATTTTTGGTTTGATGT
DNA 2: ACATCAAACCAAAAATTATTCCCTCGA
On to B10, for which the binding result in data set [10] is listed as “no binding”.
